Measured values taken from paper doi:10.1101/2025.08.07.668011, “High-Speed AFM Reveals IDR-Mediated Structural Plasticity of EML4-ALK Modulated by ALK Inhibitors” (bioRxiv, 2025).
Several values for one entry are separate records, joined by “and”; a condition that tells them apart may be missing. Identical values can stand only once.

Target: the molecule itself
Test: high-speed atomic force microscopy (HS-AFM); purified protein (approximately 3 nM) deposited on mica for 10 min, rinsed, imaged in 1/10 diluted PBS in tapping mode; oligomeric state from total pixel density, number of globules and behaviour in time-lapse images; molecules counted as monomer, dimer or trimer in broad fields; formation and dissociation seen in real time (reversible)

B1: EML4-ALK variant-1 (v1, E13:A20) (natural protein, human, UniProt Q9HC35 1-496, looked up)
chain: MDGFAGSLDDSISAASTSDVQDRLSALESRVQQQEDEITVLKAALADVLRRLAISEDHVASVKKSVSSKGQPSPRAVIPMSCITNGSGANRKPSHTSAVSIAGKETLSSAAKSGTEKKKEKPQGQREKKEESHSNDQSPQIRASPSPQPSSQPLQIHRQTPESKNATPTKSIKRPSPAEKSHNSWENSDDSRNKLSKIPSTPKLIPKVTKTADKHKDVIINQEGEYIKMFMRGRPITMFIPSDVDNYDDIRTELPPEKLKLEWAYGYRGKDCRANVYLLPTGKIVYFIASVVVLFNYEERTQRHYLGHTDCVKCLAIHPDKIRIATGQIAGVDKDGRPLQPHVRVWDSVTLSTLQIIGLGTFERGVGCLDFSKADSGVHLCIIDDSNEHMLTVWDWQKKAKGAEIKTTNEVVLAVEFHPTDANTIITCGKSHIFFWTWSGNSLTRKQGIFGKYEKPKFVQCLAFLGNGDVLTGDSGGVMLIWSKTTVEPTPGKGPKVYRRKHQELQAMQMELQSPEYKLSKLRTSTIMTDYNPNYCFAGKTSSISDLKEVPRKNITLIRGLGHGAFGEVYEGQVSGMPNDPSPLQVAVKTLPEVCSEQDELDFLMEALIISKFNHQNIVRCIGVSLQSLPRFILLELMAGGDLKSFLRETRPRPSQPSSLAMLDLLHVARDIACGCQYLEENHFIHRDIAARNCLLTCPGPGRVAKIGDFGMARDIYRASYYRKGGCAMLPVKWMPPEAFMEGIFTSKTDTWSFGVLLWEIFSLGYMPYPSKSNQEVLEFVTSGGRMDPPKNCPGPVYRIMTQCWQHQPEDRPNFAIILERIEYCTQDPDVINTALPIEYGPLVEEEEKVPVRPKDPEGVPPLLVSQQAKREEERSPAAPPPLPTTSSGKAAKKPTAAEISVRVPRGPAVEGGHVNMAFSQSNPPSELHKVHGSRNKPTSLWNPTYGSWFTEKPTKKNNPIAKKEPHDRGNLGLEGSCTVPPNVATGRLPGASLLLEPSSLTANMKEVPLFRLRHFPCGNVNYGYQQQGLPLEAATAPGAGHYEDTILKSKNSMNQPGP
notes: EML4, N-terminal part up to exon 13 (E13:A20): CC/TD domain, basic region, part of the TAPE domain (HELP, WD repeats); ALK, from exon 20 (A20) to the C-terminus, residues 1058-1620, holds the tyrosine kinase domain; ENLYFQ probably stays; also called EML4-ALK v1; source: Expi293F, transfected, purified (anti-FLAG M2 gel, TEV protease and His-tag beads, Superdex 200 SEC); not shown: His tag …
  ratio of dimers: 15%
  ratio of trimers: 9%
  stoichiometry N: 2 and 3
